Where no end group is shown, it is not given here. [ ]: non-standard residue; d: D form. pS = N[C@@H](COP(=O)(O)O)C(=O)O
biological target: T1, HLA-A*02:01 (human); assay: UV peptide-exchange ELISA
T1 construct: MHC class I monomer of the UV-ligand exchange assay; also called peptide-receptive MHC molecules; MHC class I
Description: Candidate peptides for T cell based therapies according to the present invention were further tested for their MHC binding capacity (affinity). The individual peptide-MHC complexes were produced by UV-ligand exchange, where a UV-sensitive peptide is cleaved upon UV-irradiation, and exchanged with the peptide of interest as analyzed. Only peptide candidates that can effectively bind and stabilize the peptide-receptive MHC molecules prevent dissociation of the MHC complexes. To determine the yield of the exchange reaction, an ELISA was performed based on the detection of the light chain (β2m) of stabilized MHC complexes. The assay was performed as generally described in Rodenko et al. (Rodenko et al., 2006).
96 well MAXISorp plates (NUNC) were coated over night with 2 ug/ml streptavidin in PBS at room temperature, washed 4× and blocked forl h at 37° C. in 2% BSA containing blocking buffer. Refolded HLA-A*02:01/MLA-001 monomers served as standards, covering the range of 15-500 ng/ml. Peptide-MHC monomers of the UV-exchange reaction were diluted 100 fold in blocking buffer. Samples were incubated for 1 h at 37° C., washed four times, incubated with 2 ug/ml HRP conjugated anti-β2m for 1 h at 37° C., washed again and detected with TMB solution that is stopped with […]. Absorption was measured at 450 nm. Candidate peptides that show a high exchange yield (preferably higher than 50%, most preferred higher than 75%) are generally preferred for a generation and production of antibodies or fragments thereof, and/or T cell receptors or fragments thereof, as they show sufficient avidity to the MHC molecules and prevent dissociation of the MHC complexes.

Row | peptide exchange yield [%] | Binder
1 | 50 to 75 | ALFTF[pS]PLTV [ALFTFJPLTV]
2 | 50 to 75 | NLLDIDAPVTV
3 | 10 to 20 | LQALEVLKI
4 | 20 to 50 | KLGGTPAPA
5 | 50 to 75 | SIVASLITV
6 | 50 to 75 | QLLDTYFTL
7 | 50 to 75 | ALPEVSVEA
8 | 50 to 75 | SLNIRDFTM
9 | 50 to 75 | LLFDKLYLL
10 | 20 to 50 | QLDEPAPQV
11 | 10 to 20 | LLVLIPVYL
12 | 10 to 20 | MTAGFSTIAGSV
13 | 50 to 75 | KLILLDTPLFL
14 | 50 to 75 | LLLEIGEVGKLFV
15 | 20 to 50 | SMKDDLENV
16 | 20 to 50 | QILSEIVEA
17 | 50 to 75 | LIPEGPPQV
18 | 50 to 75 | VIYTLIHYI
19 | 50 to 75 | SLNIGDVQL
20 | 50 to 75 | RLLILENILL
21 | ≥ 75 | SLLAELHVLTV
22 | 50 to 75 | QIAELPATSV
23 | 50 to 75 | SILETVATL

Row | peptide exchange yield [%] | Binder
24 | 50 to 75 | ALLRLLPGL
25 | 20 to 50 | IQDRAVPSL
26 | 50 to 75 | SLQEEKLIYV
27 | 50 to 75 | LLPTAPTTV
28 | 50 to 75 | VLPAEFFEV
29 | 20 to 50 | NLDKLWTLV
30 | 50 to 75 | SLMLEVPAL
31 | 50 to 75 | FVYGESVEL
32 | 50 to 75 | LLFDHLEPMEL
33 | 20 to 50 | KLMNDIADI
34 | 50 to 75 | LLIPVVPGV
35 | 50 to 75 | KVPAEEVLVAV
36 | 50 to 75 | SLPEAPLDV
37 | 50 to 75 | ILYNLYDLL
38 | 20 to 50 | LLLAEAELLTL
39 | 50 to 75 | SQLDISEPYKV
40 | 50 to 75 | NLTDVVEKL
41 | 50 to 75 | SLFDSAYGA
42 | 50 to 75 | FMASHLDYL
43 | 50 to 75 | SALDTITTV
44 | 50 to 75 | SLIRILQTI
45 | 50 to 75 | KLWNVAAPLYL
46 | 50 to 75 | ALGEDEITL

Row | peptide exchange yield [%] | Binder
47 | 50 to 75 | LVYEAIIMV
48 | 50 to 75 | KLWEGLTELV
49 | ≥ 75 | MLLEHGITLV
50 | 50 to 75 | SLLAELHVL
51 | 50 to 75 | NLIKTVIKL
52 | 50 to 75 | SIIEGPIIKL
53 | 50 to 75 | SLSFLVPSL
54 | 50 to 75 | AIDAALTSV
55 | 50 to 75 | SLFDQPLSII
56 | 50 to 75 | LLSEEEYHL
57 | 50 to 75 | LLPEGGITAI
58 | ≥ 75 | RLYEITIEV
59 | 50 to 75 | LLILENILL
60 | 50 to 75 | LLIGATMQV
61 | 50 to 75 | VVDGMPPGV
62 | 50 to 75 | LLLEETEKQAV
63 | 50 to 75 | YLLSGDISEA
64 | 50 to 75 | SLDNGGYYI
65 | 50 to 75 | SMDDGMINV
66 | 50 to 75 | KTLDVDATYEI
67 | 50 to 75 | AIPPSFASIFL

From patent US20170165337A1 (IMMATICS BIOTECHNOLOGIES, published 2017)
